Experimental data taken from paper PMC11180174 (2024).

B1: 7F3 (antibody, V domains shown)
VH: EVQLVESGGGLVKPGRSLRLSCTASGFTFGDYAMSWFRQAPGKGLEWVGFIRSKAYGGTTEYAASVKGRFTISRDDSKSIAYLQMNSLKTEDTAVYYCTRDRYARYDILTGLSPAGADYFYYAMDVWGQGTTVTVSS
VL: EIVLTQSPATLSLSPGERATLSCRASQSVSSYLAWYQQKPGQAPRLLIYDASNRATGIPARFSGSGSGTDFTLTISSLEPEDFAVYYCQQRSNWPQYTFGQGTKLEIK
B2: LY-CoV1404 (antibody, V domains shown)
VH: QITLKESGPTLVKPTQTLTLTCTFSGFSLSISGVGVGWLRQPPGKALEWLALIYWDDDKRYSPSLKSRLTISKDTSKNQVVLKMTNIDPVDTATYYCAHHSISTIFDHWGQGTLVTVSS
VL: QSALTQPASVSGSPGQSITISCTATSSDVGDYNYVSWYQQHPGKAPKLMIFEVSDRPSGISNRFSGSKSGNTASLTISGLQAEDEADYYCSSYTTSSAVFGGGTKLTVL

Molecular target: SARS-CoV-2 (Wuhan-Hu-1 strain) wild-type spike RBD with C-terminal 8xHis (SARS-CoV-2, UniProt P0DTC2 319-541)
Experiment: BLI

Binder	Kd [nM]
B1	< 0.01
B2	< 0.01
